Measurements reported in PMC6358605.

Target: biotinylated AviTag-BiP^19–413 (NBD), G3I8R9
Test: BLI
Conditions: chain shown with the change; for response: equilibrium signal, read off a plot; for other: K1/2 max: streptavidin biosensors loaded with biotinylated BiP NBD, equilibrium signal vs [MANF] 0-100 µM, parent: 13.9

Chain of biotinylated AviTag-BiP^19–413 (NBD), G3I8R9 (G3I8R9 19-413): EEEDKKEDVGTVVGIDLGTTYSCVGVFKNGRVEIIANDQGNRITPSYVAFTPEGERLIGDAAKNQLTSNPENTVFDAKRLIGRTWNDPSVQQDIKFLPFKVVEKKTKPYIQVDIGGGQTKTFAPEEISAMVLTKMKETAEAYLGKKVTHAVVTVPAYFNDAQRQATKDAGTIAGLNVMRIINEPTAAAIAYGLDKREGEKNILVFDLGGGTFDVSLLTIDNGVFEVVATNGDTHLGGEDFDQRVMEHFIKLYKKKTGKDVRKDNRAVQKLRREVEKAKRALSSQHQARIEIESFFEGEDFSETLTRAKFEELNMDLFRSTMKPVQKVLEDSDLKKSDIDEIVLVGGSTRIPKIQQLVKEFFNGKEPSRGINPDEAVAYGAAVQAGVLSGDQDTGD

B1: Full-length mouse MANF (wild-type), Q9CXI5 E153A (protein)
chain: LRPGDCEVCISYLGRFYQDLKDRDVTFSPATIEEELIKFCREARGKENRLCYYIGATDDAATKIINEVSKPLAHHIPVEKICEKLKKKDSQICELKYDKQIDLSTVDLKKLRVKELKKILDDWGEMCKGCAAKSDYIRKINELMPKYAPKAASARTDL
response (50 µM MANF, parent: est. 0.68): 0.17 nm | response (100 µM MANF, parent: est. 0.78): 0.24 nm

B2: Full-length mouse MANF (wild-type), Q9CXI5 K138A (protein)
chain: LRPGDCEVCISYLGRFYQDLKDRDVTFSPATIEEELIKFCREARGKENRLCYYIGATDDAATKIINEVSKPLAHHIPVEKICEKLKKKDSQICELKYDNQIDLSTVDLKKLRVKELAKILDDWGEMCKGCAEKSDYIRKINELMPKYAPKAASARTDL
response (50 µM MANF, parent: est. 0.68): 0.3 nm | response (100 µM MANF, parent: est. 0.78): 0.42 nm | other: K1/2 max (R2 0.913): 31 µM

B3: Full-length mouse MANF (wild-type), Q9CXI5 R133E (protein)
chain: LRPGDCEVCISYLGRFYQDLKDRDVTFSPATIEEELIKFCREARGKENRLCYYIGATDDAATKIINEVSKPLAHHIPVEKICEKLKKKDSQICELKYDKQIDLSTVDLKKLEVKELKKILDDWGEMCKGCAEKSDYIRKINELMPKYAPKAASARTDL
response (50 µM MANF, parent: est. 0.68): 0.1 nm | response (100 µM MANF, parent: est. 0.78): 0.13 nm

B4: Full-length mouse MANF (wild-type), Q9CXI5 R23A (protein)
chain: LAPGDCEVCISYLGRFYQDLKDRDVTFSPATIEEELIKFCREARGKENRLCYYIGATDDAATKIINEVSKPLAHHIPVEKICEKLKKKDSQICELKYDNQIDLSTVDLKKLRVKELKKILDDWGEMCKGCAEKSDYIRKINELMPKYAPKAASARTDL
response (50 µM MANF, parent: est. 0.68): 0.52 nm | response (100 µM MANF, parent: est. 0.78): 0.58 nm | other: K1/2 max (R2 0.978): 15.3 µM
